{"source": "paper PMC10318062", "about": "(Nature Communications, 2023)", "binders": {"B1": {"name": "AZD8895 (sdFab) (Fab, V domains shown)", "VH": "EVQLVQSGPEVKKPGTSVKVSCKASGFTFMSSAVQWVRQARGQRLEWIGWIVIGSGNTNYAQKFQERVTITRDMSTSTAYMELSSLRSEDTAVYYCAAPYCSSISCNDGFDIWGQGTMVTVSS", "VL": "not shown"}, "B2": {"name": "LY-CoV555 (sdFab) (Fab, V domains shown)", "VH": "QVQLVQSGAEVKKPGSSVKVSCKASGGTFSNYAISWVRQAPGQGLEWMGRIIPILGIANYAQKFQGRVTITADKSTSTAYMELSSLRSEDTAVYYCARGYYEARHYYYYYAMDVWGQGTAVTVSS", "VL": "not shown"}, "B3": {"name": "REGN10987 (sdFab) (Fab, V domains shown)", "VH": "QVQLVESGGGVVQPGRSLRLSCAASGFTFSNYAMYWVRQAPGKGLEWVAVISYDGSNKYYADSVKGRFTISRDNSKNTLYLQMNSLRTEDTAVYYCASGSDYGDYLLVYWGQGTLVTVSS", "VL": "QSALTQPASVSGSPGQSITISCTGTSSDVGGYNYVSWYQQHPGKAPKLMIYDVSKRPSGVSNRFSGSKSGNTASLTISGLQSEDEADYYCNSLTSISTWVFGGGTKLTVL"}, "B4": {"name": "LY-CoV1404 (sdFab) (Fab, V domains shown)", "VH": "QITLKESGPTLVKPTQTLTLTCTFSGFSLSISGVGVGWLRQPPGKALEWLALIYWDDDKRYSPSLKSRLTISKDTSKNQVVLKMTNIDPVDTATYYCAHHSISTIFDHWGQGTLVTVSS", "VL": "QSALTQPASVSGSPGQSITISCTATSSDVGDYNYVSWYQQHPGKAPKLMIFEVSDRPSGISNRFSGSKSGNTASLTISGLQAEDEADYYCSSYTTSSAVFGGGTKLTVL"}, "B5": {"name": "REGN10933 (sdFab) (Fab, V domains shown)", "VH": "QVQLVESGGGLVKPGGSLRLSCAASGFTFSDYYMSWIRQAPGKGLEWVSYITYSGSTIYYADSVKGRFTISRDNAKSSLYLQMNSLRAEDTAVYYCARDRGTTMVPFDYWGQGTLVTVSS", "VL": "DIQMTQSPSSLSASVGDRVTITCQASQDITNYLNWYQQKPGKAPKLLIYAASNLETGVPSRFSGSGSGTDFTFTISGLQPEDIATYYCQQYDNLPLTFGGGTKVEIK"}, "B6": {"name": "CB6 (sdFab) (Fab, V domains shown)", "VH": "EVQLVESGGGLVQPGGSLRLSCAASGFTVSSNYMSWVRQAPGKGLEWVSVIYSGGSTFYADSVKGRFTISRDNSMNTLFLQMNSLRAEDTAVYYCARVLPMYGDYLDYWGQGTLVTVSS", "VL": "not shown"}}, "data": [{"biological_target": "SARS-CoV-2 hexaproline stabilized pre-fusion spike glycoprotein (S6P) (SARS-CoV-2, ancestral (Wuhan-Hu-1 …, UniProt P0DTC2, stabilised))", "test": "AlphaScreen or HTRF", "details": "one partner purified", "values": [{"binder": "B1", "binding result": "binds"}, {"binder": "B2", "binding result": "binds"}, {"binder": "B3", "binding result": "binds"}, {"binder": "B4", "binding result": "binds"}, {"binder": "B5", "binding result": "binds"}, {"binder": "B6", "binding result": "binds"}]}]}
